Measured values: PMC6019379, “RecA-like domain 2 of DNA-dependent ATPase A domain, a SWI2/SNF2 protein, mediates conformational integrity and ATP hydrolysis” (Bioscience Reports, 2018)
Substitutions are numbered along the chain they refer to.

What was measured:
Test in all cases: intrinsic tryptophan fluorescence titration; no ATP; Fluorescence titration (ex 295 nm, em 340 nm), one-site saturation fit; buffer, salt, pH and temperature not given in the material. Wild-type ADAAD Kd values are cited from ref 24 and not listed
Conditions in all cases: protein: recombinant; tags: His (Ni-NTA, pET-14b); hairpin
ADAAD R595H = molecular target: T1, ADAAD R595H (Bos taurus (bovine), UniProt Q9TTA5 221-940, R815H)
T1 sequence: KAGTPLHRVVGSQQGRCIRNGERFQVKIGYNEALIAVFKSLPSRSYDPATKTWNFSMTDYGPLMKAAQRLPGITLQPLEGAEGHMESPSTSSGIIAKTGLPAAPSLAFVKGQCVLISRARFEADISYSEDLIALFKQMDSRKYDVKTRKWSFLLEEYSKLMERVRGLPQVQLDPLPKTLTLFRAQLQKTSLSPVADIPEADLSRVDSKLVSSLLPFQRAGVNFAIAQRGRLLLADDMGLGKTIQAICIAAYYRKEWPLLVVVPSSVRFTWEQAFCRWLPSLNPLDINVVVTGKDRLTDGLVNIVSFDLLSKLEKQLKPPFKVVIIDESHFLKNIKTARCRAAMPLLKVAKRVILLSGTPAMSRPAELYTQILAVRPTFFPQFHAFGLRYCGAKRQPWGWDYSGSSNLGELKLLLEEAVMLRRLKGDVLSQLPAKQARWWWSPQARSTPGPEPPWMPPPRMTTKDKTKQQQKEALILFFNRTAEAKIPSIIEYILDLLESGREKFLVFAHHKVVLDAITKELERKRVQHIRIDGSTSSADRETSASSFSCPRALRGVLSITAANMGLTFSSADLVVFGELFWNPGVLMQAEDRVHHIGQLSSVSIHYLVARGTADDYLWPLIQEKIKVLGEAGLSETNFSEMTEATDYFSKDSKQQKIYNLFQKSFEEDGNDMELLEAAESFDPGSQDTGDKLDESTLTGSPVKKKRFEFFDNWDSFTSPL

ADAAD F507A = molecular target: T2, ADAAD F507A (Bos taurus (bovine), UniProt Q9TTA5 221-940, F727A)
T2 sequence: T1 sequence with F507A, H595R

ADAAD T560A = molecular target: T3, ADAAD T560A (Bos taurus (bovine), UniProt Q9TTA5 221-940, T780A)
T3 sequence: T1 sequence with T560A, H595R

B1: slDNA (stem-loop DNA) (structured_DNA)
DNA: GCGCAATTGCGCTCGACGATTTTTTAGCGCAATTGCGC
B1 showed a Kd (ADAAD R595H) of 24.3 ± 6.1 nM, a Kd (ADAAD F507A) of 19 ± 4.5 nM and a Kd (ADAAD T560A) of 6.8 ± 0.6 nM.
